Assay results published in US20120328512A1 (BRACCO IMAGING S P A, published 2012).
Bridge positions count the residues as written; N and C are the ends. Square brackets hold non-standard residues; d marks the D form. Primed or numbered codes have the meaning given here. Ends that are not written are not given here. * marks the point of attachment. αGalNAc = CC(=O)N[C@@H]1[C@@H](O)[C@@H](O)[C@@H](CO)O[C@@H]1*; 5FAM = O=C1OC2(c3ccc(O)cc3Oc3cc(O)ccc32)c2ccc(C(=O)*)cc21; Phe(3,4-F2) = N[C@@H](Cc1ccc(F)c(F)c1)C(=O)O; Thf2ca = tetrahydrofuran-2-carboxylic acid; Phe(4-F) = N[C@@H](Cc1ccc(F)cc1)C(=O)O; CF5″ = 5-carboxyfluorescein label; Cha = N[C@@H](CC1CCCCC1)C(=O)O; CF5 = 5-carboxyfluorescein; AEEA = NCCOCCOCC(=O)O

T1: DDE
T1 chain 1: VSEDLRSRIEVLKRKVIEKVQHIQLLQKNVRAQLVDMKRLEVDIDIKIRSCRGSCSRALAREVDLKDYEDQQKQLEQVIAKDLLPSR
T1 chain 2: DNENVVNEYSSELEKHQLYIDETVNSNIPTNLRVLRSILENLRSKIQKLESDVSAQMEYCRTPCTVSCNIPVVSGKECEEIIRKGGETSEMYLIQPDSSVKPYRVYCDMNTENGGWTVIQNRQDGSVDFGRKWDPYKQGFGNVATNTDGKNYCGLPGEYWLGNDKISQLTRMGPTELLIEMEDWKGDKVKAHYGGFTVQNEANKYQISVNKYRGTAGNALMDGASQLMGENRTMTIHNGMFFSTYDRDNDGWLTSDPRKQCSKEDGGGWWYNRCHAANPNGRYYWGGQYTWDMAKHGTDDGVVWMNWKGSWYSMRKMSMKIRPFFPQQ
T1 chain 3: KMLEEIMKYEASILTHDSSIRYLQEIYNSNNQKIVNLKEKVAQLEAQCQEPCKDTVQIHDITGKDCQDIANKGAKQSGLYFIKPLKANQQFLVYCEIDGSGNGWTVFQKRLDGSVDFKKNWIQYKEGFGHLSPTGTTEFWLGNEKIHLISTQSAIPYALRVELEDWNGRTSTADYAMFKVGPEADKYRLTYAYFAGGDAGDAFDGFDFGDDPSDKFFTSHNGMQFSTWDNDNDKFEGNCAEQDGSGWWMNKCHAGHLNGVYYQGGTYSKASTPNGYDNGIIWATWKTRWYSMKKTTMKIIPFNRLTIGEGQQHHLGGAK
T1 chain 4: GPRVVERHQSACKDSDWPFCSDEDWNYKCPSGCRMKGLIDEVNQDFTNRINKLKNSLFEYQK
T1 chain 5: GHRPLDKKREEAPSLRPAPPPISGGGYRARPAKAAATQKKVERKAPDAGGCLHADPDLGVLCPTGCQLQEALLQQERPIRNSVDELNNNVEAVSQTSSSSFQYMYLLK
T1 chain 6: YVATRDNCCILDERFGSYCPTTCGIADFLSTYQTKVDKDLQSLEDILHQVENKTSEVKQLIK

B1: Seq018-CF5 (peptide)
peptide: Ac-WQPCPWESWT[Cha]CWDPGGGK(CF5)-NH2
modifications: disulfide 4-12
B2: Seq019-CF5 (peptide)
peptide: Ac-WQPCPWESWT[Phe(4-F)]CWDPGGGK(CF5)-NH2
modifications: disulfide 4-12
B3: Seq020-CF5 (peptide)
peptide: Ac-WQPCPWESWT[Phe(3,4-F2)]CWDPGGGK(CF5)-NH2
modifications: disulfide 4-12
B4: Seq022-CF5 (peptide)
peptide: H-RGWQPCPWESWTFCWDPGGGK(5FAM)-NH2
modifications: disulfide 6-14
SMILES: C[C@@H](O)[C@@H]1NC(=O)[C@H](Cc2c[nH]c3ccccc23)NC(=O)[C@H](CO)NC(=O)[C@H](CCC(=O)O)NC(=O)[C@H](Cc2c[nH]c3ccccc23)NC(=O)[C@@H]2CCCN2C(=O)[C@@H](NC(=O)[C@@H]2CCCN2C(=O)[C@H](CCC(N)=O)NC(=O)[C@H](Cc2c[nH]c3ccccc23)NC(=O)CNC(=O)[C@@H](N)CCCNC(=N)N)CSSC[C@@H](C(=O)N[C@@H](Cc2c[nH]c3ccccc23)C(=O)N[C@@H](CC(=O)O)C(=O)N2CCC[C@H]2C(=O)NCC(=O)NCC(=O)NCC(=O)N[C@@H](CCCCNC(=O)c2ccc3c(c2)C(=O)OC32c3ccc(O)cc3Oc3cc(O)ccc32)C(N)=O)NC(=O)[C@H](Cc2ccccc2)NC1=O
B5: Seq023-CF5 (peptide)
peptide: H-RWQPCPWESWTFCWDPGGGK(5FAM)-NH2
modifications: disulfide 5-13
SMILES: C[C@@H](O)[C@@H]1NC(=O)[C@H](Cc2c[nH]c3ccccc23)NC(=O)[C@H](CO)NC(=O)[C@H](CCC(=O)O)NC(=O)[C@H](Cc2c[nH]c3ccccc23)NC(=O)[C@@H]2CCCN2C(=O)[C@@H](NC(=O)[C@@H]2CCCN2C(=O)[C@H](CCC(N)=O)NC(=O)[C@H](Cc2c[nH]c3ccccc23)NC(=O)[C@@H](N)CCCNC(=N)N)CSSC[C@@H](C(=O)N[C@@H](Cc2c[nH]c3ccccc23)C(=O)N[C@@H](CC(=O)O)C(=O)N2CCC[C@H]2C(=O)NCC(=O)NCC(=O)NCC(=O)N[C@@H](CCCCNC(=O)c2ccc3c(c2)C(=O)OC32c3ccc(O)cc3Oc3cc(O)ccc32)C(N)=O)NC(=O)[C@H](Cc2ccccc2)NC1=O
B6: Seq027-CF5 (peptide)
peptide: Ac-S(αGalNAc)WQPCPWESWTFCWDPGGGK(CF5)-NH2
modifications: disulfide 5-13
B7: Seq028-CF5 (peptide)
peptide: Thf2ca-WQPCPWESWTFCWDPGGGK(CF5)-NH2
modifications: disulfide 4-12
B8: Seq038-CF5 (peptide)
peptide: H-GWQPCPAESWTFCWDPGGGK(5FAM)-NH2
modifications: disulfide 5-13
SMILES: C[C@@H]1NC(=O)[C@@H]2CCCN2C(=O)[C@@H](NC(=O)[C@@H]2CCCN2C(=O)[C@H](CCC(N)=O)NC(=O)[C@H](Cc2c[nH]c3ccccc23)NC(=O)CN)CSSC[C@@H](C(=O)N[C@@H](Cc2c[nH]c3ccccc23)C(=O)N[C@@H](CC(=O)O)C(=O)N2CCC[C@H]2C(=O)NCC(=O)NCC(=O)NCC(=O)N[C@@H](CCCCNC(=O)c2ccc3c(c2)C(=O)OC32c3ccc(O)cc3Oc3cc(O)ccc32)C(N)=O)NC(=O)[C@H](Cc2ccccc2)NC(=O)[C@H]([C@@H](C)O)NC(=O)[C@H](Cc2c[nH]c3ccccc23)NC(=O)[C@H](CO)NC(=O)[C@H](CCC(=O)O)NC1=O
B9: Seq039-CF5 (peptide)
peptide: Ac-GWQPCPAESWTFCWDPGGGK(5FAM)-NH2
modifications: disulfide 5-13
SMILES: CC(=O)NCC(=O)N[C@@H](Cc1c[nH]c2ccccc12)C(=O)N[C@@H](CCC(N)=O)C(=O)N1CCC[C@H]1C(=O)N[C@H]1CSSC[C@@H](C(=O)N[C@@H](Cc2c[nH]c3ccccc23)C(=O)N[C@@H](CC(=O)O)C(=O)N2CCC[C@H]2C(=O)NCC(=O)NCC(=O)NCC(=O)N[C@@H](CCCCNC(=O)c2ccc3c(c2)C(=O)OC32c3ccc(O)cc3Oc3cc(O)ccc32)C(N)=O)NC(=O)[C@H](Cc2ccccc2)NC(=O)[C@H]([C@@H](C)O)NC(=O)[C@H](Cc2c[nH]c3ccccc23)NC(=O)[C@H](CO)NC(=O)[C@H](CCC(=O)O)NC(=O)[C@H](C)NC(=O)[C@@H]2CCCN2C1=O
B10: Seq048-CF5 (peptide)
peptide: Ac-RWQPCPWESWTFCWDPGGGK(5FAM)-NH2
modifications: disulfide 5-13
SMILES: CC(=O)N[C@@H](CCCNC(=N)N)C(=O)N[C@@H](Cc1c[nH]c2ccccc12)C(=O)N[C@@H](CCC(N)=O)C(=O)N1CCC[C@H]1C(=O)N[C@H]1CSSC[C@@H](C(=O)N[C@@H](Cc2c[nH]c3ccccc23)C(=O)N[C@@H](CC(=O)O)C(=O)N2CCC[C@H]2C(=O)NCC(=O)NCC(=O)NCC(=O)N[C@@H](CCCCNC(=O)c2ccc3c(c2)C(=O)OC32c3ccc(O)cc3Oc3cc(O)ccc32)C(N)=O)NC(=O)[C@H](Cc2ccccc2)NC(=O)[C@H]([C@@H](C)O)NC(=O)[C@H](Cc2c[nH]c3ccccc23)NC(=O)[C@H](CO)NC(=O)[C@H](CCC(=O)O)NC(=O)[C@H](Cc2c[nH]c3ccccc23)NC(=O)[C@@H]2CCCN2C1=O
B11: Seq049-CF5 (peptide)
peptide: Ac-RWQPCPAESWTFCWDPGGGK(5FAM)-NH2
modifications: disulfide 5-13; not fully specified
B12: Seq050-CF5 (peptide)
peptide: Ac-RWQPCPAESWT[Cha]CWDPGGGK(CF5)-NH2
modifications: disulfide 5-13
B13: Seq051-CF5 (peptide)
peptide: GWQPCPAESWT[Cha]CWDPGGGK(CF5)-NH2
modifications: disulfide 5-13
B14: Seq052-CF5 (peptide)
peptide: Ac-RGWQPCPWESWTFCWDPGGGK(5FAM)-NH2
modifications: disulfide 6-14; not fully specified
B15: Seq053-CF5 (peptide)
peptide: Ac-RGWQPCPAESWT[Cha]CWDPGGGK(CF5)-NH2
modifications: disulfide 6-14
B16: Seq054-CF5 (peptide)
peptide: RGWQPCPAESWT[Cha]CWDPGGGK(CF5)-NH2
modifications: disulfide 6-14
B17: Seq055-CF5 (peptide)
peptide: Ac-GWQPCPAESWT[Cha]CWDPGGGK(CF5)-NH2
modifications: disulfide 5-13
B18: Seq056-CF5 (peptide)
peptide: RWQPCPAESWTFCWDPGGGK(5FAM)-NH2
modifications: disulfide 5-13; N-terminus assumed
SMILES: C[C@@H]1NC(=O)[C@@H]2CCCN2C(=O)[C@@H](NC(=O)[C@@H]2CCCN2C(=O)[C@H](CCC(N)=O)NC(=O)[C@H](Cc2c[nH]c3ccccc23)NC(=O)[C@@H](N)CCCNC(=N)N)CSSC[C@@H](C(=O)N[C@@H](Cc2c[nH]c3ccccc23)C(=O)N[C@@H](CC(=O)O)C(=O)N2CCC[C@H]2C(=O)NCC(=O)NCC(=O)NCC(=O)N[C@@H](CCCCNC(=O)c2ccc3c(c2)C(=O)OC32c3ccc(O)cc3Oc3cc(O)ccc32)C(N)=O)NC(=O)[C@H](Cc2ccccc2)NC(=O)[C@H]([C@@H](C)O)NC(=O)[C@H](Cc2c[nH]c3ccccc23)NC(=O)[C@H](CO)NC(=O)[C@H](CCC(=O)O)NC1=O
B19: Seq057-CF5 (peptide)
peptide: RWQPCPAESWT[Cha]CWDPGGGK(CF5)-NH2
modifications: disulfide 5-13
B20: Seq000-CF5 (peptide)
peptide: Ac-WQPCPWESWTFCWDPGGGK(CF5)-NH2
modifications: disulfide 4-12
notes: also called standard 5CF-labeled peptide
B21: Seq014-CF5 (peptide)
peptide: Ac-GPPGWQPCPWESWTFCWDPGGGK(CF5)-NH2
modifications: disulfide 8-16
B22: Seq015-CF5 (peptide)
peptide: Ac-GGRGWQPCPWESWTFCWDPGGGK(CF5)-NH2
modifications: disulfide 8-16
B23: Seq016-CF5 (peptide)
peptide: Ac-GWQPCPWESWTFCWDPGGGK(CF5)-NH2
modifications: disulfide 5-13
B24: Seq017-CF5 (peptide)
peptide: Ac-SGSG[AEEA]WQPCPWESWTFCWDPGGGK(CF5″)-NH2
modifications: disulfide 9-17
B25: Seq024-CF5 (peptide)
peptide: Ac-SGSGSGSGWQPCPWESWTFCWDPGGGK(CF5)-NH2
modifications: disulfide 12-20

Biological target: DDE
Experiment: direct binding fluorescence polarization: CF5-labeled peptide titrated with DDE; n = 2

Row | Binder | Kd [nM]
1 | B1 | 200
2 | B2 | 1020
3 | B3 | 700
4 | B4 | 280
5 | B5 | 110
6 | B6 | 500
7 | B7 | 1210
8 | B8 | 240
9 | B9 | 240
10 | B10 | 110
11 | B11 | 210
12 | B12 | 80
13 | B13 | 60
14 | B14 | 530
15 | B15 | 100
16 | B16 | 50
17 | B17 | 80
18 | B18 | 60
19 | B19 | 30

Biological target: T1, DDE
Experiment: as above

Row | Binder | Kd [nM]
20 | B20 | 390
21 | B21 | 250
22 | B22 | 290
23 | B23 | 230
24 | B24 | 450
25 | B25 | 470
